The target in test [1] is human dUTPase (human).
For test [2], the target named is human dUTPase (human). Description: steady state enzyme inhibition assay; apparent; 50 nM hDUT preincubated 5 min with varying Stl variant, 30 µM dUTP, 25 °C, 1 mM HEPES, 150 mM KCl, 5 mM MgCl2, 40 µM phenol red, pH 7.5; quadratic binding equation.
The target of test [3] is biotinylated Stl^NT (residues 1-159) with C-terminal Avi-tag (Staphylococcus aureus). Description: BLI; biotinylated Stl construct on streptavidin SAX biosensors, hDUT in solution; Octet K2, 30 °C, 50 mM HEPES, 300 mM NaCl, 5 mM MgCl2, pH 7.5; at least five dilutions; 1:1 binding model; substrate-free.
The target of test [4] is human dUTPase (human). Description: crystal structure; Stl^NT and hDUT mixed in 1:1 monomer molar ratio, ca. 20 mg/ml; crystals at 20 °C from 1.5 M ammonium sulfate, 0.1 M sodium acetate pH 5; 3.2 Å.

13 substances from paper PMC11808092 can be followed below.

Consider “Stl protein, wild type, full-length (natural protein)”, for which, in the test with human dUTPase (human) [1], the Residual activity of 50 nM hDUT at 300 nM Stl concentration is 30%. Same read-out and setting: the same measure for Stl-E189A (natural protein): 77%. With Stl-I181A, I184A (natural protein), the Ki with human dUTPase (human) [2] came out at 2.3 nM. This substance had a Residual activity of 50 nM hDUT at 300 nM Stl concentration with human dUTPase (human) [1] of 70%. In the test with human dUTPase (human) [1], Stl-L192A, F196A (natural protein) returned a Residual activity of 50 nM hDUT at 300 nM Stl concentration of 100%. Still for that read-out and setting: the same measure for Stl-S114D (natural protein): 100%.

In turn, Stl-S114E (natural protein) registered a Residual activity of 50 nM hDUT at 300 nM Stl concentration in the test with human dUTPase (human) [1] of 100%.

Take Stl-V55S (natural protein): in the test with human dUTPase (human) [1], the Residual activity of 50 nM hDUT at 300 nM Stl concentration worked out at 75%. The substance Stl-Y106K (natural protein) came in with a Residual activity of 50 nM hDUT at 300 nM Stl concentration with human dUTPase (human) [1] of 83%. On the same count and under the same terms, the same measure for Stl-Y106R (natural protein): 89%; for Stl-Y116R (natural protein): 69%. Consider Stl-derived peptide 95-…-117, for which the Ki with human dUTPase (human) [2] is 13 nM. This substance also returned a Residual activity of 50 nM hDUT at 300 nM Stl concentration with human dUTPase (human) [1] of 70%. As to “Stl^NT (amino terminal domain of Stl, residues 1-159) (domain or fragment)”, the Ki in the test with human dUTPase (human) [2] came out at 31 nM. Further, in the test with human dUTPase (human) [1], the Residual activity of 50 nM hDUT at 300 nM Stl concentration was 50%. For orientation: Kd means the concentration at which binding is half-saturated. What is called koff is a measure of how fast the partners let go of each other. High values mean fast dissociation, low ones slow dissociation. The kon is a measure of how fast the partners come together. By stoichiometry N is commonly meant the number of molecules, sites or subunits per partner or assembly. In test [3], human dUTPase (enzyme) gave a Kd of 0.177 nM, a koff of 0.000106 s⁻¹ and a kon of 600000 M⁻¹ s⁻¹. For the same substance, in the test with human dUTPase (human) [4], the stoichiometry N was determined as 3.
